{"source": "the nanobody polyreactivity screen of Harvey et al. (2022)"}
{"assay": "yeast display, Sf9 membrane polyspecificity reagent, FACS + sequencing; frameworks hold sequencing errors", "method_in_brief": "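Using colony PCR, genes from sorted yeast display clones were amplified, then sequenced on MiSeq at 2 × 250 and filtered by CDR length. The clones had been stained with 10% biotinylated, detergent-solubilized Sf9 membrane reagent for 1 hour at 4 °C and sorted by FACS into low and high (top ~1%) gates on anti-HA and streptavidin fluorescence. Polyreactivity labels come from the gate of origin.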"}
{"sequence": "QVQLVESGGGLVQAGGSLRLICAASGYTFSFYAMGWYIQAPGKERELVAAISRSGGSTYYADSVKGRFTISRDNAKNTVYLQMNSLKPEYTAVYYCAARWPGAYHEYGYWGQGTQVTVSS", "polyreactivity (PSR sort gate)": "high polyreactivity"}
{"sequence": "QVQLVESGGGLVQAGGSLRLICAASGYTFYAYAMGWYRQAPGKERELVAAITSGSSTYYADSVKGRFTISRDNAKNTVYLQMNSLKQEDTAVYYCASRIRGWRLLTSYYWGQGTQVTVSS", "polyreactivity (PSR sort gate)": "low polyreactivity"}
{"sequence": "QVQLVESGGGLVQAGGSLRLICAASVSTFRKYAMGRYRQAPGKEREFVAAISSSGGRTYYADSVKGRFTISRDNAKNTVYLQMNSLKPEDTAVYYCNAYFRYSYDYWGQGTQVTVSS", "polyreactivity (PSR sort gate)": "high polyreactivity"}
{"sequence": "QVQLVESGGGLVQAGGSLRLICAATGITLGYYAMGWYRQAPGKERELVAAISYRGGNTYYADSVKGRFTISRDNAKNTVYLQMNSLKPEDTAVYYCNADLGYESGWWSKYDYWGQGTQVTVSS", "polyreactivity (PSR sort gate)": "low polyreactivity"}
{"sequence": "QVQLVESGGGLVQAGGSLRLICAATGRNFRYYAMGWYRQAAGKERQLVAAIRNGGSTYYADSVKGRFTISRDNAKNTVYLQMNSLKPEDTAVYYCAGRYNYVSHRGGDWGHGTQVTVSS", "polyreactivity (PSR sort gate)": "high polyreactivity"}
{"sequence": "QVQLVESGGGLVQAGGSLRLICAAYGSTFVTNVMGWYRQAPGKERELVAAISARGGSTYYADSVKGRFTISRDNAKNTVYLQMNSLKPEDTAVYYCNAVVRPWQSYYYWGQGTQVTVSS", "polyreactivity (PSR sort gate)": "high polyreactivity"}
{"sequence": "QVQLVESGGGLVQAGGSLRLICADSGLIFRWYAMGWYRQAPGKERELVAAISRRGGTTNYADSVKGRFTISRDNAKNTVYLQMNSLKPEDTAVYYCAVSGGFYWGQGTQVTVSS", "polyreactivity (PSR sort gate)": "high polyreactivity"}
{"sequence": "QVQLVESGGGLVQAGGSLRLICADSGRILGINAMGWYRQAPGKERELVAAISSGGSTYYADSVKGRFTISRDNAKNTVYLQMNSLKPEDTAVYYCNVGSYAGWSDHPRYGYWGQGTQVTVSS", "polyreactivity (PSR sort gate)": "high polyreactivity"}
{"sequence": "QVQLVESGGGLVQAGGSLRLICADSGSIFDGNVMGWYRQAPGKERDLVAAISGARTNYADSVKGRFTISRDNAKNTVYLQMNSLKAEDTAVYYCNVLPVGSEYDYWGQGTQVTVST", "polyreactivity (PSR sort gate)": "low polyreactivity"}
{"sequence": "QVQLVESGGGLVQAGGSLRLICDASGFTFGVYAMGWYRQAPGKETELVAAISTTVGSTYYADSVKGRFTISRDNAKNNVYLQLNRLKPEDTALYYCAAEYTGYLNYYIYEYWGQGTQVTVSS", "polyreactivity (PSR sort gate)": "low polyreactivity"}
{"sequence": "QVQLVESGGGLVQAGGSLRLICDASGRIFRSYAMGWYRQAPGKERELVAAINWRGGSTFYADSVKGRFTISRDNAKNTVYLQMNSLKPEDTAVYYCARRGYRQSGDYWGQGTQVTVSS", "polyreactivity (PSR sort gate)": "low polyreactivity"}
{"sequence": "QVQLVESGGGLVQAGGSLRLICEASGFIFDDNAIGSYRQAPGKERELVAAITSGGGSTYYADSVKGRCTISRDYAKNTVYLHMNSLKPEDTAVYYCNAVPSQHDEFDYWGQGTQVTVSS", "polyreactivity (PSR sort gate)": "low polyreactivity"}
{"sequence": "QVQLVESGGGLVQAGGSLRLIFAASGFTFGGYAMGWYRQGPGKERELVAGISYRGGSTYYADSVKGRFTISRDNAKNTVYLQMNSLKPEDTAVYYCAADRGYPGKVDYWGQGTQVTVSS", "polyreactivity (PSR sort gate)": "low polyreactivity"}
{"sequence": "QVQLVESGGGLVQAGGSLRLIFAASGIIFGRYPMGWYRPAPGKERELVAAITSGGSTSYADSVKGRFTISRDNAKNTVYLQMNSLKPEDTAVYYCAVVFVWGWPGYYWGQGTQVTVSS", "polyreactivity (PSR sort gate)": "high polyreactivity"}
{"sequence": "QVQLVESGGGLVQAGGSLRLISAASGSIFAKYAMGWYRHAPGKERELVAAITGSGGSTYYADSVKGRFTISRDNAKNTVYLQMNSMKPEDPAVYYCAKRRPRYTYNYCGQGTQVTVSS", "polyreactivity (PSR sort gate)": "high polyreactivity"}
{"sequence": "QVQLVESGGGLVQAGGSLRLISAASGSTFPPYSMGWYSQAPGKEWEVVADITRRGASTYYADSVKVRFTISRDNAKNTVYLQMNSLKPEDTAVYYCAARYYDQYYSGFDYWGQGTQVTVSS", "polyreactivity (PSR sort gate)": "high polyreactivity"}
{"sequence": "QVQLVESGGGLVQAGGSLRLLCAASGFTFFRYAKGWYRQAPGKERELLATINWSGGRTYYADSVKGRFTISRDNAKNTVYLQMNSLKPEDTAVYYSNAYYPSSFWRMDYWGQGTQVTVSS", "polyreactivity (PSR sort gate)": "high polyreactivity"}
{"sequence": "QVQLVESGGGLVQAGGSLRLNCAASGGIFAYNAMGWYRQAPGKEMELVAAITYGGGSTYYADSVKGRFTISRDNAKNTVYLQMNSLKPEDTAVYYCATRGHYHAFYYTYPRYDSWGQGTQVTVSS", "polyreactivity (PSR sort gate)": "low polyreactivity"}
{"sequence": "QVQLVESGGGLVQAGGSLRLNCAASGRIFGYNDMGWSRQAPGKERELVAAIDYSAGSTYYADSVKGRFTISRDNAKNTVNLQMNSLKPEDTAVYYCNTDSESSLLSSRGYWGQGTQVTVSS", "polyreactivity (PSR sort gate)": "low polyreactivity"}
{"sequence": "QVQLVESGGGLVQAGGSLRLNCAASGRIFKYNTRGWYRQAPGKERQLVAAISLSTGSGGGTRYADSVKGRFTISRDNAKNTVYLKMNSLNPEDTAVYYCAARHRYTNEYDYWGQGTQVTVSS", "polyreactivity (PSR sort gate)": "low polyreactivity"}
{"sequence": "QVQLVESGGGLVQAGGSLRLNCAASGSIFDHYAMGWYRQAPGKERELVAAINIRTGYTYYADSVKGRFTISRDNAKNTVYLQMNSLKPEDTAVYYCNRVVRGFVRHLDYWGQGTQVTVSS", "polyreactivity (PSR sort gate)": "low polyreactivity"}
{"sequence": "QVQLVESGGGLVQAGGSLRLRCAAMGWYRQAPWKERELVAGITRDGNTYYADSVKGRFTISRDNAKNTVYLQMNSLKPEDTAVYYCAAKHPKKYSYWGQGTQVSVSS", "polyreactivity (PSR sort gate)": "low polyreactivity"}
{"sequence": "QVQLVESGGGLVQAGGSLRLRCAASARIYDTYAMGWYRQAPGKERELVASISIDGSTYYADSVKGRFTISRDNAKNTVYLQMNSLKREDTAVYYCNADGRYYTVRFEYWGQGTQVTVSS", "polyreactivity (PSR sort gate)": "low polyreactivity"}
{"sequence": "QVQLVESGGGLVQAGGSLRLRCAASARTFAGYALGWYRQAPGKERELVAAITTGGSTKYADSVKGRFTISRDNAKNTVYLQMNSLKQEDTAVYYCAAESYYKYFNKYDYWGQGTQVTVSS", "polyreactivity (PSR sort gate)": "high polyreactivity"}
{"sequence": "QVQLVESGGGLVQAGGSLRLRCAASGFIFCQYSMGWYRQAPGKERELVAAITWGGTNTYYADSVKGRFTISRDNAKNTVYLQMNSLKPEDTAVYYCAADNSPFTGNLDYWGQGTQVTVSS", "polyreactivity (PSR sort gate)": "low polyreactivity"}
{"sequence": "QVQLVESGGGLVQAGGSLRLRCAASGFIFIFNAMGWYRQAPGKERELLAAIDTSDDSTYYADSVKGRFTISRDNAKNTVYLQMNSLYPEDTAVYYCAAEELSNYEYWGQGTQVSVSS", "polyreactivity (PSR sort gate)": "low polyreactivity"}
{"sequence": "QVQLVESGGGLVQAGGSLRLRCAASGFIFWMNAMGWYRQAPGKERELVAAISIGGRTNYADSVKGRFTISRDNSKNTVYLQMNSLKPEDTAVYYCNKDYRSVYKGGGFDYWGQGTQVTVST", "polyreactivity (PSR sort gate)": "low polyreactivity"}
{"sequence": "QVQLVESGGGLVQAGGSLRLRCAASGFISGYNTMGWYRQAAGKEMEFVAAISVSGGRTYYADSVKGRFTFSRDNAKNTVYLQMNSLKPEDTAVYYCAGRYWSWRSFKVDYWGQGTQVTVSS", "polyreactivity (PSR sort gate)": "high polyreactivity"}
{"sequence": "QVQLVESGGGLVQAGGSLRLRCAASGFNHKPMGCYRQAPGKERELVAAISYSAGSTYYADSVKGRFTISRDNAKNTVYLQMNSLKPEDTAVYYCDIRYNYFTGTLSRYYSNIYGYWGQGTQVTVSS", "polyreactivity (PSR sort gate)": "high polyreactivity"}
{"sequence": "QVQLVESGGGLVQAGGSLRLRCAASGFTFGYNAMGWYRQAPGKERELVAAIYFSDGITYYADSVKGRFTISRDNAKNTVYLQMNSLKPEDTAVYYCAADLYFEYEYWGQGTQVTVSS", "polyreactivity (PSR sort gate)": "high polyreactivity"}
{"sequence": "QVQLVESGGGLVQAGGSLRLRCAASGFTFPSYPMGWYRQAPGKEREVVAAISQRGGSTYYADSEKGRFTISRDNAKHTVYLQLNSLKPEDTAVYYCAALAPRTGRPTYGYWGQGTQVTVSS", "polyreactivity (PSR sort gate)": "low polyreactivity"}
{"sequence": "QVQLVESGGGLVQAGGSLRLRCAASGFTIGANTMGWYRQAPGKEWELVASISASGGSTYYADSVKGRVTISRDNAKNTVYVQMNSLKPDDTAGYYCAARRYPGRTATYYSWGQGTQVTVSS", "polyreactivity (PSR sort gate)": "high polyreactivity"}
{"sequence": "QVQLVESGGGLVQAGGSLRLRCAASGGTFYPYALGWYRQAPGKESELVAAISTSGGITYYADSVKARFTISRDNAKNTVYLQMNSLKPEDTAVYYCAAPVAYRGSRNFIYRYNYWGQGTQVTVSS", "polyreactivity (PSR sort gate)": "high polyreactivity"}
{"sequence": "QVQLVESGGGLVQAGGSLRLRCAASGHIFRQYAMGWYRQAPGKERELVAAITSGGSTYYADSVKGRFTISRDNAKNTVYLEMNSLKPEDNAVYYCADKYFFSYRHGDYWGQGNQVTVSS", "polyreactivity (PSR sort gate)": "low polyreactivity"}
{"sequence": "QVQLVESGGGLVQAGGSLRLRCAASGIIFDGNVMGWYSQAPGKEREFVASISISGGSTSYADSVKGRFTISRDNAKNTVYLQMNSLNPEDTAVYYCNTDVGYGRVWRWRYHGDYWGQGTQVTVSS", "polyreactivity (PSR sort gate)": "low polyreactivity"}
{"sequence": "QVQLVESGGGLVQAGGSLRLRCAASGIIIYDYAMGWYRQAPGKERELVAAISSTAVGTYYADSVKGRFTISRDNAKNTVYLQMNSLKPVDTAVYYCAAAVSPHSEGFGEYNYWGQGTQVTVSS", "polyreactivity (PSR sort gate)": "low polyreactivity"}
{"sequence": "QVQLVESGGGLVQAGGSLRLRCAASGLTFGVYPMGWYRQAPGKERELVAAISSSGGSTYYADSVKGRYTISRDYAKNTVYLHMNSLKPEDTAVYYCNAGRGTKYDYWGQGTQVTVSS", "polyreactivity (PSR sort gate)": "low polyreactivity"}
{"sequence": "QVQLVESGGGLVQAGGSLRLRCAASGLTFVYYAMGWYRQAPVKERELVAAITSGGSTYYADSVKGRFTISRDNAKNTVYLQMNSLKPEDTAVYYCAATYPGFYFLLDEYWGQGTQVTVSS", "polyreactivity (PSR sort gate)": "high polyreactivity"}
{"sequence": "QVQLVESGGGLVQAGGSLRLRCAASGNIFDDNAMGWYRQAPGKERELVAALTWTGGSTYYADSVKGRFTISRDNAKNTVYLQMNSLKAEYTAVYNCADYDYWGQGTQVTVSS", "polyreactivity (PSR sort gate)": "low polyreactivity"}
{"sequence": "QVQLVESGGGLVQAGGSLRLRCAASGNTFFGYDMGWYRQAPGKERELVAAISGSGGGTYYADSVKGRFTISRDNAMNTVYLQMNCLKPEDTAVYYCAADSPQTEGYWGEGTQVTVSS", "polyreactivity (PSR sort gate)": "low polyreactivity"}
{"sequence": "QVQLVESGGGLVQAGGSLRLRCAASGNTFGYYTMGWYRQAPAKESELVASIDSGGGTNYADSVKGRFTISRDNAKNTVYLQMNRLKPEDTAVYSCAAASPLYWVDDFESGWRYYYWGQGTQVTVSS", "polyreactivity (PSR sort gate)": "low polyreactivity"}
{"sequence": "QVQLVESGGGLVQAGGSLRLRCAASGRIFGRYAMGWYRQAPGKERELVARITYIAGNTYYADSVKGRFTISRDNSKNTVYLQMKSLKPEDTAVYSCNADSYYIQYDYWGQGTQVTVSS", "polyreactivity (PSR sort gate)": "high polyreactivity"}
{"sequence": "QVQLVESGGGLVQAGGSLRLRCAASGRLFQSNAMGWYIQAPGKERELVSGINSDTSTYYADSVKGRFTISRDNAKNTVYLKMNSLKPDDTAVYYCNAGWDTYYWQSTEFDYWGQGTQVTVSS", "polyreactivity (PSR sort gate)": "low polyreactivity"}
